{
  "source": "the PETadex activity labels (doi:10.1016/j.eti.2025.104587)",
  "key": {"PET": {"substrate": "PET", "test": "Proxy for plastic degradation [Weight/mass loss]", "conditions": "pH 7.5; 0 h"}, "pNPB": {"substrate": "pNPB", "test": "Proxy for plastic degradation [p-nitrophenol (pNP) release] (% relative activity)"}},
  "data": [
    {"protein": "unnamed (protein) MKSVLARARLVAAATAMLAFAAWALVSAAPAVEAQSNPYQRGPNPTRSALTADGPFSVSTYSVSGLSVSGFGGGVIYYPTGTTLTFGGIAMSPGYTASSSSLAWLGRRLASHGFVVLVIDTITRLDFPDSRASQLSAALNYLRTSSPSTVRARLDGTRLAVAGHSMGGGGTLRVSEQLPSLKAGVPLTPWHTDKTFNTSVPQLIVGAENDSVAPVSQHAIPFYQNLPSTTPKVYVELNNASHFAPNTSNATISVYTISWMKLWVDNDTRYRPFLCNVSDASLSDFRSNNRHCQ", "values": [
      {"measurement": "Proxy for plastic degradation", "setting": "PET", "value": 0, "unit": "%"},
      {"measurement": "Proxy for plastic degradation", "setting": "pNPB; pH 4", "value": 0},
      {"measurement": "Proxy for plastic degradation", "setting": "pNPB; pH 5", "value": 34.5},
      {"measurement": "Proxy for plastic degradation", "setting": "pNPB; pH 6.5", "value": 75},
      {"measurement": "Proxy for plastic degradation", "setting": "pNPB; pH 7", "value": 86.5},
      {"measurement": "Proxy for plastic degradation", "setting": "pNPB; pH 7.5", "value": 99.5},
      {"measurement": "Proxy for plastic degradation", "setting": "pNPB; pH 7.5, 30 °C", "value": 39.5},
      {"measurement": "Proxy for plastic degradation", "setting": "pNPB; pH 7.5, 40 °C", "value": 41},
      {"measurement": "Proxy for plastic degradation", "setting": "pNPB; pH 7.5, 50 °C", "value": 48},
      {"measurement": "Proxy for plastic degradation", "setting": "pNPB; pH 7.5, 60 °C", "value": 72},
      {"measurement": "Proxy for plastic degradation", "setting": "pNPB; pH 7.5, 70 °C", "value": 99},
      {"measurement": "Proxy for plastic degradation", "setting": "pNPB; pH 7.5, 80 °C", "value": 69.5},
      {"measurement": "Proxy for plastic degradation", "setting": "pNPB; pH 9", "value": 60.5},
      {"measurement": "Proxy for plastic degradation", "setting": "pNPB; pH 10", "value": 45.5}
    ]}
  ]
}
